Source: patent US20050037963A1

Columns and labels:
[1] = target: endogenous FAK of NIH 3T3 cells (mouse) (UniProt P34152); experiment: cell-based or functional assay
[2] = target: endogenous FIP200 of NIH 3T3 cells (mouse) (UniProt Q9ESK9); experiment: cell-based or functional assay
Chain of endogenous FIP200 of NIH 3T3 cells (mouse) (Q9ESK9 whole entry): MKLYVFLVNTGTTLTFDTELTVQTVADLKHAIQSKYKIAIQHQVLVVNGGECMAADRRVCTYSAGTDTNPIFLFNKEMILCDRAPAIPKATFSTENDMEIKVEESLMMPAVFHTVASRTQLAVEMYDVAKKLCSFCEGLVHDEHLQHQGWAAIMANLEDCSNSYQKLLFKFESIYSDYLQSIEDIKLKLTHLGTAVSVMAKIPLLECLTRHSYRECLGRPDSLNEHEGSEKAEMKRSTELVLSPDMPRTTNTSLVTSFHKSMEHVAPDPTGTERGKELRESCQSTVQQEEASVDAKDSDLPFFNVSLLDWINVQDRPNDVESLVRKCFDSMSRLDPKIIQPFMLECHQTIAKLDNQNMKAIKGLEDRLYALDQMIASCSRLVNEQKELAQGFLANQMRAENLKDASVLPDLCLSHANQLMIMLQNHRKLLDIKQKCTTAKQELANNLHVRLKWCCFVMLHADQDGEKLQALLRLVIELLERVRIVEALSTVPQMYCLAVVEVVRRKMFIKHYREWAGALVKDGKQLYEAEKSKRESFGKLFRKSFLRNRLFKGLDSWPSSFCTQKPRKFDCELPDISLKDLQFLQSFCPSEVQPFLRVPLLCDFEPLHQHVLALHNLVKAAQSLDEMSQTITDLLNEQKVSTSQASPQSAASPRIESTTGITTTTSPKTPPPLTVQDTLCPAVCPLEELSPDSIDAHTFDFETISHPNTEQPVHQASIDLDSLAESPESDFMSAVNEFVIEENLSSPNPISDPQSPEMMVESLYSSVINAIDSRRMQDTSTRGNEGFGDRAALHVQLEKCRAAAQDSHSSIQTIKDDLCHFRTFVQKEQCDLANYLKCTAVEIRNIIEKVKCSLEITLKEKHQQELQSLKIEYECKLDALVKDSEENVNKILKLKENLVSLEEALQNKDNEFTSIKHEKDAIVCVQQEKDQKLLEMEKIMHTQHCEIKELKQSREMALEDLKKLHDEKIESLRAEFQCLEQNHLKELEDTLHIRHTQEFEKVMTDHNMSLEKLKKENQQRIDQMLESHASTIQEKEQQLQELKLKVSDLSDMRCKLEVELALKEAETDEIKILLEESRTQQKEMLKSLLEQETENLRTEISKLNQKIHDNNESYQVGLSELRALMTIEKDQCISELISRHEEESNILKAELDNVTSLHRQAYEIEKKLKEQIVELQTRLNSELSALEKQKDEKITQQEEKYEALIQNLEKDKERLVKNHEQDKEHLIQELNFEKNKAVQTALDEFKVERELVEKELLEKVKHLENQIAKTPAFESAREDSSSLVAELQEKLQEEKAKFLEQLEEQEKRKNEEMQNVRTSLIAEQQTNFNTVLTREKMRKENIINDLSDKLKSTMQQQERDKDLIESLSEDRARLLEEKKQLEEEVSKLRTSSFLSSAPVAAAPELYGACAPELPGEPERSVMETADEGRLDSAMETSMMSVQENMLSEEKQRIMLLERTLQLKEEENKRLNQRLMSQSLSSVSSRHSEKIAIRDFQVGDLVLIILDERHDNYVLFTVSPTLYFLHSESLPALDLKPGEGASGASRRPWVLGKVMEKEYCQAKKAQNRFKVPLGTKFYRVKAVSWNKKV

Chain of endogenous FAK of NIH 3T3 cells (mouse) (P34152 2-1052 limits assumed): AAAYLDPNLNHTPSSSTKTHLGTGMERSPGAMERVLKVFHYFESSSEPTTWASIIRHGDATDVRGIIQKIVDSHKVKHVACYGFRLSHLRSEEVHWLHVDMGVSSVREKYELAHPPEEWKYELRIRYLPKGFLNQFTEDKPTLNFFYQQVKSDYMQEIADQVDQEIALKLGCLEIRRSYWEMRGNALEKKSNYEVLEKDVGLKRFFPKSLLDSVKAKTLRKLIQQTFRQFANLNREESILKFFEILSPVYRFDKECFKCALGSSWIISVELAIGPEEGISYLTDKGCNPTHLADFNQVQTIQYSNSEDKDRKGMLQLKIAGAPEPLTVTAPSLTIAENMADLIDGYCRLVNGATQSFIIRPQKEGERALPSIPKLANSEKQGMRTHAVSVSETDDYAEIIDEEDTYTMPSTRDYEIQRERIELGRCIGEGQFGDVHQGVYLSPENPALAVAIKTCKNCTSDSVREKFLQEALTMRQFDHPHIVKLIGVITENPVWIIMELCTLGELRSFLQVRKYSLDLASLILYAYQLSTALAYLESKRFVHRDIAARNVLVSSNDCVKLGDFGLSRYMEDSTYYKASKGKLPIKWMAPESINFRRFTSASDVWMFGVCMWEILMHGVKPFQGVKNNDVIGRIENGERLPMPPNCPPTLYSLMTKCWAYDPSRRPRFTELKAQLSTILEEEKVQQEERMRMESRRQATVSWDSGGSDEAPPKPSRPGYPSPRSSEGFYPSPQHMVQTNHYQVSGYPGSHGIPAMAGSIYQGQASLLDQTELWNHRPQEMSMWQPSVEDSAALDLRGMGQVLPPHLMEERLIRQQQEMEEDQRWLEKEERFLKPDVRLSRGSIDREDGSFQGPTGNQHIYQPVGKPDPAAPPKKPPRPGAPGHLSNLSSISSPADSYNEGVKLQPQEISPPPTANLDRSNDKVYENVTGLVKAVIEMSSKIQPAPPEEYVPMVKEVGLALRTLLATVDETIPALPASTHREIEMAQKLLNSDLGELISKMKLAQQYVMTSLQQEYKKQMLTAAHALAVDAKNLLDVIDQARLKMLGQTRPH

| Substance | inhibition of cell spreading on FN (NIH3T3, β-gal cotransfection) [1] [%] | further results |
| --- | --- | --- |
| Flag-tagged NT-FIP (NH2-terminal FIP200, residues 1-638) (from UniProt Q8TDY2 1-638) | 50 | – |
| HA-tagged KD^KR (FAK kinase domain, residues 403-672, with the kinase-defective mutation K454 to R) | – | cells entering S-phase on PLL (BrdU incorporation, NIH3T3) [2]: 30% |
| HA-tagged full-length FIP200 (pKH3-FIP200, residues 1-1591) (from UniProt Q8TDY2 1-1594) | – | inhibition of cell cycle progression (BrdU incorporation, NIH3T3) [1]: 90% |

Further lines, with some results ahead:

| inhibition of cell spreading on FN (NIH3T3, β-gal cotransfection) [1] [%] | Substance | further results |
| --- | --- | --- |
| 50 | Flag-tagged MD-FIP (middle domain FIP200, residues 639-1373) (from UniProt Q8TDY2 639-1373) | – |
| 50 | Flag-tagged full-length FIP200 (from UniProt Q8TDY2 1-1594) | – |
